The nanobody polyreactivity screen of Harvey et al. (2022)

Assay: yeast display, Sf9 membrane polyspecificity reagent, FACS + sequencing; frameworks hold sequencing errors
Method in brief: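 Nanobodies from a synthetic yeast display library (Saccharomyces cerevisiae BJ5465), induced 36–48 hours with galactose, were stained 1 hour at 4 °C with 10% biotinylated, detergent-solubilized Sf9 membrane reagent, enriched on streptavidin microbeads, then FACS-sorted. Anti-HA (expression) and streptavidin (reagent binding) fluorescence set low and high (top ~1%) gates. Polyreactivity labels come from the gate of origin. Genes were colony-PCR amplified, MiSeq 2 × 250 sequenced and filtered by CDR length.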

| Sequence | polyreactivity (PSR sort gate) |
| --- | --- |
| QVHLVESGGGLVQAGGSLRLSCAASGRTFDRNAMGWYRQAPGKERELVAAISRNGGSTYYADSVKGRFTISRDNAKNTVYLQMNSLKPEDTAVYYCAAPRSVYDVARGDYWGQGTQVTVSS | high polyreactivity |
| QVQLVESGGGLVQAGGSLRLSCAASGRTFYYNAMGWYRQAPGKERELVAAISGRGGSTYYADSVKGRFTISRDNAKNTVYLQMNSLKPEDTAVYYCNAVRYKYTGRFGYWGQGTQVTVSS | high polyreactivity |
| QVQLVESGGGLVQAGGSLRLSCASSGSISAVNTMGWYRQAPGKERELVATISYSTASTYYADSVKGRFTMSRDNAKKTVYLQMNSLKPEDTAVYYCNKDGRWYAYNSEYDHWGQGTQVTVSS | low polyreactivity |
| QFQLVESGGGLVQAGGSLRLSCAASGFTFAVYAMGWYRQAPWKERELVAAISRSGTRTYYADSVKGRFTISRDNAKNTVYLQMNSLKPVDTAVYYCAADKYRHGYDYWGQGTQVTVSS | low polyreactivity |
| QVQLVESGGGLVQAGGSLRLSCAASGSTSRIYAMGWYRQAPGKERELVAAITRSGGSTYYADSVKGRFTISRDNAKNTVYLQMNSLKPEDTAVYYCAADYRSHSRYRYDKVDYWGQGTQVTVSS | high polyreactivity |
| QVQLVESGGGLVQAGGSLRLSCAASGSIFYAYAMGWYRQAPGKERELVATISSVGSTYYADSVKGRFTISRDNAKNTVYLQMNSLKPEDTAVYYCAKQRIVVYKTGYDYWGQGTQVTVSS | low polyreactivity |
| QVQLVESGGGLVQAGGSLRLSCAASGSTFGGYAMGWYRQAPGKERELVAAINSGGSTYYADSVKGRFTISRDNAKNTVYLQMNSLKPEDTSVYYCNADSQVLRDYISDYWGQGTQVTVSS | low polyreactivity |
| QVQLVESGGGLVQAGGSLRLSCAASGRTFHYYTMGWYRQAPGKERELVAAISQSGGRTYYADSVKGRFTISRDNAKNTVYLQMNSLKPEDTAVYYCAAVSWRVISDYRIVGYDYWGQGTQVTVSS | low polyreactivity |
| QVHLVESGGGLVQAGGSLRLSCAASGRTFRYYAMGWYRQAPGKERELVAAITGSGGRTYYADSVKGRFTISRDNAKNTVYLQMNTLKPEDTAVYYCNRDPDIYICYDYWGQGTQVTVSS | high polyreactivity |
| QVQLVESGGGLVQAGGSLRLSCAASGRTFANYAMGWYTQAPGKERELVAAITSGGRTYYAVSVKGRFTISRDNAKNTVYLQMNSLKPEDTAVYYCAATRYRVYAQNYDYWGQGTQVTVSS | high polyreactivity |
| QVQLVESGGGLVQAGGSLRLSCAASGRTFFGYAMGWYRQAPGKERELVAAISSRGDSTYYADSVKGRFTISRDNAKNTVYLQMNSLKPEDTAVYYCNTYSTVYSYDYDYWGQGTQVTVSS | low polyreactivity |
| QVQLEESGGGLVQAGGSLRLSCAASGIISTYYVMGWYRQAPGKERELVAAITGGDSSTYYADSVKGRFTISRDTAKNTVYLQMNSLIPDDTAVYYCAKEYYYARGARYDYWGQGTQVTVSS | low polyreactivity |
| QVQLVESGGGLVQAGGSLRLSCAASGFTFGRNAMGWYRQAPGKEREFVAAISKSGTSTYYADSVKGRFTISRDNAKNTVYLQMNSLKPEDTAVYYCARTIYAKRWDFDYWGQGTQVTVSS | low polyreactivity |
| QVQLVESGGRLVQAGGSHRLRCAASGFIFKHNAMGWYRQAPGQEREFVARISWSGGSTRYADSVKGRFTISRDNAKNTVYLQMNSLKPEDTAVYYCAADQLGNDMDYWGQGTQVTVSS | low polyreactivity |
| QVQLVESGGGLVQAGGSLRLSCAASGSIFFSYAMGWYRQAPGKERELVAGINWSGGSTYADSVKGRFTISRDNAKNTVYLQMNSLKPEDTAVYYCAAKYYSERSRYHYWGQGTQVTVSS | low polyreactivity |
| QVQLVESGGALVQAGGSLRLSCAASGRTFGRYAMGWYRQAPGKEREFVASISRRGGTTYYADSVKGRFTLSRDNAKNTVYLQMNSLKPEDTGVYYCAKEGSPTNPWYGSYEYDYWGQGTQVTVSS | low polyreactivity |
| QVQLQESGGGMVQAGGSLRLSCAASGYISWADYMGWYRQAPGKERELVAGIGYGSTTYYADSVKGRFTISRDNAKNTAYLQMNSLKPEDTAVYYCSVGWYRDTAYKYWGQGTQVTVSS | low polyreactivity |
| QVQLVESGGGLVQAGGSLRLSCAASGSTFVQYAKGWSRQAPGKERELVATISKSGGDTYADSVKGRFTISRDNAKNTVYLQMNSLKPEDTAVYYCAAGYTWVSHRYRYAYNYWGQGTQVTVSS | low polyreactivity |
| QVQLVDSGGGIVQAGGSLRLSCAASGTFDAYAMGWYRQEPGKERELVASISSSGGSTYYADSVKGRFTITRDNAKNTVYLQMYSLNPEDRAVYYCAATDFWYSGYYWGKGTQVTVSS | low polyreactivity |
| QVQLLESGGGLVQAGGCLRLSCAASGSIFYPYALGGYRQAPGIVRELVAAISSREGRSYYADSVKGRFTISRDNGKKTVYLQMNSLKPEDTAVYYCAACSFNYGHRFYWGQGSQVTVSS | high polyreactivity |
| QVKLVESGGGLVQAGGSLRLSCAASGSIFWGYDMGWYRQAPGKERELVARISYSGGSTSYADSVKGRFTISRDNAKNTVYLQMNSLKPEDTAVFYCAADEGGFWWTYPYDSLGQGTQVTVSS | low polyreactivity |
| QVQLVESGGGLVQAGGSLRLSCAASGRTFQKYVMGWYRQEPGKEREIVAAISGGGGRTYYADSVKGRFTISRDNAKNTVYLQMNSLKPEDTAVYYCAARGLGKELDRFYYWGQGTQVTVSS | high polyreactivity |

| Sequence | polyreactivity (PSR sort gate) |
| --- | --- |
| QVQLVESGGGLVQAGGSLRLSCAASGSILTAYAMGWYRQAPGKERELVAAISRGDITKYADSVKGRFTISRDNAKNTVYLQMNRLKPEDTAVYYCAARVPRYSDSTRGRADYYWGQGTQVTVSS | high polyreactivity |
| QLQLVESGGGLVQAGGSRRISCAASGRTFDSNAMGSYRHAPGKERELVAAIYADSVKGRFTISRENAKNTVSLQMNFLKPEDTAVYYCAAETYSGQTYLGEYDFWGQGTQVTVSS | low polyreactivity |
| QVQLVESGGGLVQAGGSLRLSCAASGSIIYYNAMGWYRQAPAKERELVAAITGSGGSTYYADSVKGRFTISRDNAINTVYLQMNSLKPEDTAVYDCAADYSLYGWWFRNDYWGQGTQVTVSS | low polyreactivity |
| QVQLVESGGGLVQAGGSLRLSCAASGYIFRVYAMGWYRQAPGKERELVAAISGSGGRTYYADSVKGRFTISRDNAKNTVSLQMNSLKPEDTAVYYCAAYRVSDYDYWGQGTQVTVSS | high polyreactivity |
| QVQLVESGGGLVQAGGSLRLSCAASGRIFNYNAMGWYRQAPGKERELVAAIDWSGGRTYYADSVKGRFTISRDNAKNTVYLQMNSLKPEDTAVYYCNTVGYSLRLRTGGYWGQGTQVTVSS | high polyreactivity |
| QVQLVESGGGLVQAGGSLRLSCAASGRIFYNVMGWYRQAPGKERELVAAISSSGGRTYYADSVKGRFTISRDNAKNTVYLQMNSLKPEDTAVYYCAARAWYYGYWGQGTQVTVSS | high polyreactivity |
| QVQLVESGGGLVQSGGSLRLSCDASGITFKYAMGCYSQAPWKESELVAAISWSGGRTYYADSVKGRFTISRDNAKNTVYLQMNSLKPEDTAVYYCNAYRRYNDEDYWGQGTQVTVSS | high polyreactivity |
| QVQLVESVGGLVQAGGSLRLSCAASGSTFYENTMGWYRQAPGKERELVAAISFRGGSRYYADSVKGRFTISRDNAKNTVYLQMNSLKPEDTAVYYCNADDSPVPSIRFDYWGEGTQVTVSS | low polyreactivity |
| QVQLVESGGGLVHAGGSLRLSCAASGIIFQYYLMGSYRPAPGKERELVAAIDKSGGSTYYADSVKGRFTISRDNAKNTVYLQMNSLKPEDTAVYYCAATSYAHKYYGYFGAIKYEYWGQGTQVTVSS | low polyreactivity |
| QVQLVESGGGLVQAGGSLRLSCAASGRIFPAYAMGWYRQAPGKERELVAAITWTGGRTYYADSVKGRFTISRDNAKNSFYLQMNILKPEDTAVYYCAKAPARSRGYEYWGQGTQVTVSS | low polyreactivity |
| QVQLVESGGGLVQAGGSLRLSCAASGFTFRDNTMGWYRQAPGKERELVASISWSGGSTYYADSVKGRFTFSRDYAKNTVYLQMNSVKPEDTAVYYCAADDGSQYYFVSPHEYDYWGQGTQVTVSS | low polyreactivity |
| QVQLVESGGGLVQAGGSLRLSCAASGRTFAINAMGWYRQAPGKERELVADITTDGSTYYADSVKGRFTISRDNAKNTVYLQMNSLKPEDTAVYYCATDSLDYFIRFKQFGYWGQGTQVTVSS | low polyreactivity |
| QVQLVESGGGLVQAGGSLRLSCAASGRTLYRNAMGWYRQSPWKDREFVSRITWSGASTYYADSVKGRFTISRDNAKNTVYLQMNSLKPEDTAVYYCAAQYLSRRYGPYYTYNYWGQGTQVTVSS | high polyreactivity |
| QVQLVESGGGLVQAGRSLRLSCAASGSTLQNNGMGWYRQAPGKERELVAAISIGGDTNYADSVKGRFTISRDNAKNTEMNSMKPEDTAGYYCNTDYFGSQVVVIFDFWGQGTQVTVSS | low polyreactivity |
| QVQLVESVGGLVQAGGSLSLSCAASGIIFVPYAMVWYRQAPGKERELVAAISSGGSTDYADSVKGRFTISRDNAKNTVYLQMNSLKPEDTAVYYCNKYYRGIFKAHRDYWGQGTQVTLSS | low polyreactivity |
| QVQLVESGGGLVQEGGSLRLSCAASGSTFYPNAMGWYRQAPGKERELVAAISSSGGSTYYADSVKGRFTISRDNAKNTVYLQMNSLKPEDTAVYYCNKRWFRDYDYWGPGTQVTVSS | high polyreactivity |
| QVQLVESGGGLVQAGGSLRLSCAASGIFRKYAMGWYRQAPGTERELVAAITWGGGRTYYADSVKGRFTISRDNAKNTVYLQMNSLKPEDTAVYYCAAEYSLVPSYKVYYWGQGTQVTVSS | high polyreactivity |
| KVQLVESGGGLVQAGGSLRLSCAASGSIFDLYTMGWYRQAPGKERELVATISSGGSTNYADSVKGRFTISRDNAKNTVNLQMNSLKPEDTAVYYCAAGSTHYDIHFDYWGQGTQVTVSS | low polyreactivity |
| QVQLVESGGGLVQAGGSLRLSCAASGSTFRRYTMGWYRQAPGKERELVAAISSGGSTYYADSVKGRFTISLDNAKNTVYLQMNSLKPEDTAVYYCAAKNYPLTRYWRYDYSEYYYWGQGTQVTVSS | high polyreactivity |
| QVQLVESGGGLFQAGGTLRLSCDASGLIFLSYGMAWYRQAPGKERELVAAISSGGSTYYADSVKGRFTISRDNAKNTDYLQMNSLKPEDTAVYYCASEQPIEFDHWGQGTQVTVSS | low polyreactivity |
| QVQLVESGGGLVQAGGSLRLSCAASGLTINYYAMGLYRQAPGKERELVAAITWRGGSTYYADSVKGRFTISRDNAKNTVYLQMNSLKPEDTAVYYCAADPGPYGYYYWGQGTQVTVSS | low polyreactivity |
